Results published in article PMC11472053, “Structural basis of DNA recognition by BEN domain proteins reveals a role for oligomerization in unmethylated DNA selection by BANP” (Nucleic Acids Research, 2024).

Legend:
Test in all cases: ITC; ITC: 20 mM Tris pH 7.5, 200 mM NaCl, 2 mM beta-mercaptoethanol, 20 C; EMSA: 20 mM Tris pH 7.0, 200 mM NaCl, 2 mM DTT, 4 C, 1.2% agarose in TAE
BANP ΔCC = molecular target: T1, BANP ΔCC (human, UniProt Q8N9N5 90-519); details: protein: recombinant; tags: His-SUMO or His-MBP, cleaved; blunt, self-complementary
T1 sequence: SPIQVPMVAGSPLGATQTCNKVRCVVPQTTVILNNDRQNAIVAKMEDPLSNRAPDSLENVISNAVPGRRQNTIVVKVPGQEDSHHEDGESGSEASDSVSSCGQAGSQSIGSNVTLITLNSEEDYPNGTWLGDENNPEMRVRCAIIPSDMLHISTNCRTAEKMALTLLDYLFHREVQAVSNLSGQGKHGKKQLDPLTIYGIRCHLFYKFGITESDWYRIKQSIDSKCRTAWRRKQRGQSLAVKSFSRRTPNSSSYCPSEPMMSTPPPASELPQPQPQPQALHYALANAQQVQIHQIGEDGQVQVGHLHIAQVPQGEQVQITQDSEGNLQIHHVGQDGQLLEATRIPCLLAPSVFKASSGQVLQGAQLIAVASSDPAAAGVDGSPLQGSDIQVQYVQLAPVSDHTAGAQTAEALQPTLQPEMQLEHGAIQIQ

BANP BEN-DBD = molecular target: T2, BANP BEN-DBD (human, UniProt Q8N9N5 205-519); details: protein: recombinant; tags: His-SUMO or His-MBP, cleaved; blunt, self-complementary
T2 sequence: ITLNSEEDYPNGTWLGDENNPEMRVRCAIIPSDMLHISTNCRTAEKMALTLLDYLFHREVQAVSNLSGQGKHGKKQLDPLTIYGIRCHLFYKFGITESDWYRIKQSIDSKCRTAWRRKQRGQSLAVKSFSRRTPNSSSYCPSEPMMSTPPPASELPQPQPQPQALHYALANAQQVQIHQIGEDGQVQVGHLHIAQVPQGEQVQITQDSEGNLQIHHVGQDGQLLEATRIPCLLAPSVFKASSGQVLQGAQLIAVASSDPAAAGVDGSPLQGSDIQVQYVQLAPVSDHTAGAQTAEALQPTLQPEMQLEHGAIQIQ

BANP BEN K278A = molecular target: T3, BANP BEN K278A (human, UniProt Q8N9N5 205-325, K278A); details: protein: recombinant; tags: His-SUMO or His-MBP, cleaved; chain copies: 2; blunt, self-complementary
T3 sequence: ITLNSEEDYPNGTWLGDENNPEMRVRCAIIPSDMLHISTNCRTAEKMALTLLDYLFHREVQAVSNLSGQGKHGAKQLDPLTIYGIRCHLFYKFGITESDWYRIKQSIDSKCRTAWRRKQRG

BANP BEN K314A = molecular target: T4, BANP BEN K314A (human, UniProt Q8N9N5 205-325, K314A); details: protein: recombinant; tags: His-SUMO or His-MBP, cleaved; chain copies: 2; blunt, self-complementary
T4 sequence: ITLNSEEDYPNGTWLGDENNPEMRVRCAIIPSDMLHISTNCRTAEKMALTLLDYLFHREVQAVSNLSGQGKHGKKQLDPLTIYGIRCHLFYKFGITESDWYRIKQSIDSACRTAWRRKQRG

GST-BANP BEN = molecular target: T5, GST-BANP BEN (human, UniProt Q8N9N5 205-325); details: protein: recombinant; tags: N-terminal GST fusion; chain copies: 2; blunt, self-complementary
T5 sequence: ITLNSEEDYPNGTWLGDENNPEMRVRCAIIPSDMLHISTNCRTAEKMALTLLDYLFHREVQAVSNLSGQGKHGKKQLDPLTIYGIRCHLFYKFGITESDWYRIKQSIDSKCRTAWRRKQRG

B1: 12-CGCG (dsDNA)
DNA 1: ATCTCGCGAGAT
DNA 2: ATCTCGCGAGAT
Q: With B1 as the binder, how does the Kd (BANP ΔCC) read?
A: The Kd was 3.4 ± 0.5 µM.

Q: And the Kd (BANP BEN-DBD)?
A: Its Kd is 3.1 ± 0.3 µM.

Q: And the Kd (BANP BEN K278A)?
A: The Kd was 35.6 ± 4.1 µM.

Q: What about the Kd (BANP BEN K314A) of the same binder?
A: Its Kd is 25.2 ± 3.8 µM.

Q: And the Kd (GST-BANP BEN)?
A: The Kd was 2.3 ± 0.4 µM.
